Substitutions are numbered along the chain they refer to. In names and notes the source's numbering stands.

What all share (assay): SEC-MALS
For orientation: SEC sorts molecules by how far they enter the pores of the column.

The target of experiment [1] is hsSMNΔ5(T274I)•Gemin2, Q16637;O14893. Particulars: chain shown with the change; 20°C; peak concentration 0.5 µM; parent: 231 (188-454).
Experiment [2] addresses hsSMNΔ5(G279V)•Gemin2, Q16637;O14893. Particulars: chain shown with the change; 20°C; peak concentration 0.3 µM; parent: 231 (188-454).
For experiment [3], the target named is hsSMNΔ5(H273R)•Gemin2, Q16637;O14893. Particulars: chain shown with the change; 20°C; peak concentration 0.5 µM; parent: 231 (188-454).

B1: hsSMNΔ5•Gemin2 complex, O14893 T274I (protein)
chain 1: MAMSSGGSGGGVPEQEDSVLFRRGTGQSDDSDIWDDTALIKAYDKAVASFKHALKNGDICETSGKPKTTPKRKPAKKNKSQKKNTAASLQQWKVGDKCSAIWSEDGCIYPATIASIDFKRETCVVVYTGYGNREEQNLSDLLSPICEVANNIEQNAQENENESQVSTDESENSRSPGNKSDNIKPKSAPWNSFLPPPPPMPGPRLGPGKIIPPPPPICPDSLDDADALGSMLISWYMSGYHIGYYMGFRQNQKEGRCSHSLN
chain 2: MAWVPAESAVEELMPRLLPVEPCDLTEGFDPSVPPRTPQEYLRRVQIEAAQCPDVVVAQIDPKKLKRKQSVNISLSGCQPAPEGYSPTLQWQQQQVAQFSTVRQNVNKHRSHWKSQQLDSNVTMPKSEDEEGWKKFCLGEKLCADGAVGPATNESPGIDYVQIGFPPLLSIVSRMNQATVTSVLEYLSNWFGERDFTPELGRWLYALLACLEKPLLPEAHSLIRQLARRCSEVRLLVDSKDDERVPALNLLICLVSRYFDQRDLADEPS
In the case of B1, in experiment [1], the other: SEC-MALS Mw is 198.

B2: hsSMNΔ5•Gemin2 complex, O14893 G279V (protein)
chain 1: B1 chain 1 with I242T, G247V
chain 2: B1 chain 2
B2: in experiment [2], the other: SEC-MALS Mw is 384.

B3: hsSMNΔ5•Gemin2 complex, O14893 H273R (protein)
chain 1: B1 chain 1 with H241R, I242T
chain 2: B1 chain 2
In the case of B3, in experiment [3], the other: SEC-MALS Mw was 266.
